According to publication PMC4059916:

Biological target: VARP451-640His6 Q509A (human) (UniProt Q96NW4)
Experiment: ITC; Nano ITC; VARP constructs at 60 μM in the cell at 4°C, Rab constructs at 300 μM titrated, 24 injections of 2 μl; 50 mM HEPES pH 7.4, 200 mM NaCl, 5 mM MgCl2, 1 mM TCEP

Sequence of VARP451-640His6 Q509A (human) (Q96NW4 451-640 Q509A): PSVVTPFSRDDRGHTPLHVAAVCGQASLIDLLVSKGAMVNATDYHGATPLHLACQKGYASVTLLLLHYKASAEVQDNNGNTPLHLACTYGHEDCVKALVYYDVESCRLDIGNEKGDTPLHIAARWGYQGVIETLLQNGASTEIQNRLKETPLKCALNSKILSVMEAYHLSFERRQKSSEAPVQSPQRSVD

Rab32 1-225 (Q85L), GTP hydrolysis-defective mutant, GST removed (from UniProt Q13637 1-225) (enzyme)
Kd: 30 µM
